Substrate: [H][C@@]1(O[C@H]2[C@H](O)[C@@H](O)[C@H](Oc3ccc([N+](=O)[O-])cc3)O[C@@H]2CO)O[C@H](CO)[C@H](O)[C@H](O)[C@H]1O
Assay: p-nitrophenol release, Lineweaver-Burk
Type: biochemical, Aspergillus fumigatus
Conditions: 50 °C, 30 min, 25 mM citrate pH 5.0

B1: AfCel7A (Aspergillus fumigatus Af293) (protein)
chain: QQVGTSQAEVHPSMTWQSCTAGGSCTTNNGKVVIDANWRWVHKVGDYTNCYTGNTWDTTICPDDATCASNCALEGANYESTYGVTASGNSLRLNFVTTSQQKNIGSRLYMMKDDSTYEMFKLLNQEFTFDVDVSNLPCGLNGALYFVAMDADGGMSKYPTNKAGAKYGTGYCDSQCPRDLKFINGQANVEGWQPSSNDANAGTGNHGSCCAEMDIWEANSISTAFTPHPCDTPGQVMCTGDACGGTYSSDRYGGTCDPDGCDFNSFRQGNKTFYGPGMTVDTKSKFTVVTQFITDDGTSSGTLKEIKRFYVQNGKVIPNSESTWTGVSGNSITTEYCTAQKSLFQDQNVFEKHGGLEGMGAALAQGMVLVMSLWDDHSANMLWLDSNYPTTASSTTPGVARGTCDISSGVPADVEANHPDAYVVYSNIKVGPIGSTFNSGGSNPGGGTTTTTTTQPTTTTTTAGNPGGTGVAQHYGQCGGIGWTGPTTCASPYTCQKLNDYYSQCL
Km: 128 ± 1 µM | kcat: 0.08055 ± 0.00033 s⁻¹
